Source: patent US12552866B2, “Internalizing binding molecules targeting receptors involved in cell proliferation or in cell differentiation” (LinXis B.V., priority 2019, dated 2026)
Entries after “also recorded” stand apart in the source; their conditions may differ. Like-named read-outs stand apart in the source and are kept apart here.

Columns and labels:
hIGF2R-ECD = target: T1, hIGF2R-ECD (Homo sapiens, UniProt P11717); assay: Binding assay / titration ELISA on recombinant hIGF2R-ECD; conditions: KD+SEM, n=2, read-out: calculated affinity (KD)
T1 construct: recombinant human extracellular domain of IGF2R (hIGF2R-ECD)
Experimental: The 15 unique hIGF2R binders (Example 1.1, FIG. 2) were produced and purified as described in examples 2 and 3. The apparent affinities were determined with binding assays on hIGF2R-ECD. Briefly, three-fold serial VHH dilutions, starting from 1 μM, were added onto hIGF2R-ECD coated plates. After 2 hours of incubation, plates were washed and bound VHH was detected using a VHH-specific IgG antibody, followed by an IRD800CW-conjugated IgG-specific antibody. […] VHH 13F11 was also produced with a C-terminal free cysteine and conjugated using maleimide chemistry to Alexa Fluor 647 (13F11-A647 in FIG. 8A, conjugation method as described in example 9.2). A titration ELISA (direct read out at 647 nm) with this construct was carried out on hIGF2R-ECD to determine whether the affinity was affected after site directed conjugation (FIG. 8B). The KD and Bmax were calculated in Graphpad (version 8.3), using one-site specific binding analysis (FIG. 8C).
Based on their high affinity and binding to non-overlapping receptor epitopes, VHHs 13F11 and 13E8 were selected for the design of biparatopic and bivalent VHH constructs. Two VHHs were fused with a flexible linker, consisting of three Gly-Gly-Gly-Gly-Ser repeats (FIG. 8A). The sequences were codon optimized for expression in E. coli and obtained as synthesized DNA fragments from GeneArt. The DNA fragments encoding VHHs were cloned into a vector pET28-based vector introducing a C-terminal free cysteine for site-directed conjugation and His6 tag for IMAC purification (FIG. 8A). The constructs were produced and purified as described in example 3. The constructs were conjugated to Alexa Fluor 647 (conjugation method as described in example 9.2) and titration ELISAs on recombinant hIGF2R-ECD (as described in example 4.1) were performed to determine the KD and Bmax (calculated in Graphpad (version 8.3), using one-site specific binding analysis) (FIG. 8C).
Next, 13F11-13E8 was genetically re-engineered to include an in vivo half-life extender in the form of an albumin binding domain (ABD) as described by Johansson et al (Structure, specificity, and mode of interaction for bacterial albumin-binding modules, J. Biol. Chem. 2002 (277): 8114-8120) and subsequently produced and purified as described in Example 3. Subsequently, 13F11-13E8-ABD was conjugated to IRDye800CW (F11E8-ABD-IRD800, conjugation method as described in example 9.2) and the binding affinities of the biparatopic VHH as well as the ABD unit was determined. […] The binding affinity (KD) of F11-E8-ABD-IRD800 to rat serum albumin (RSA) was 30 nM and to mouse serum albumin (MSA) and human serum albumin (HSA) the binding affinity was approximately 200 nM.

[1] = system: mock transfected NIH 3T3 2.2 cells; assay: Internalization in mock transfected NIH 3T3 2.2 cells; type: cell-based; conditions: 25 nM VHH conjugated to Alexa Fluor 647
Experimental: (§1) To assess if monovalent 13F11 and biparatopic 13F11-13E8 are internalized in the hIGF2R expressing cells, A549 cells (FIG. 16A) and NIH 3T3 2.2 cells transiently transfected with hIGF2R (FIG. 16B) were incubated with 25 nM VHH conjugated to Alexa Fluor 647 (conjugation method as described in example 9.2). A Mouse anti-IGF2R mAb was included to detect IGF2R expression on the hIGF2R transfected cells NIH 3T3 2.2 (FIG. 16B, right column), the mAb was detected with a goat anti-mouse mAb conjugated to Alexa Fluor 555. Additionally, mock transfected NIH 3T3 2.2 cells were incubated with 13F11 and 13F11-13E8 (FIG. 16C). […]
(§2) (FIG. 10D). […] The rate of internalization (endocytic rate constant, ke) of biparatopic constructs 13F11-13E8 and 13E8-13F11 was determined with a kinetic internalization assay on SCC-VII cells transfected with hIGF2R and rIGF2R. […] Subsequently, cells were washed with cold PBS and the non-internalized VHH construct (bound fraction) was separated from the internalized construct (internalized fraction) using an acid-wash, as described above, after which the fluorescence of both fractions were measured. […] Internalization was also observed in rIGF2R expressing SCC cells as a clear increase in fluorescence over time can be shown in FIG. 17 (ke around 0.7 min-1).

[2] = system: A549 cells (IGF2R positive); assay: Internalization in A549 cells (acid wash, confocal); type: cell-based, human; conditions: 25 nM VHH conjugated to Alexa Fluor 647
Experimental: as §1, §2

[3] = system: NIH 3T3 2.2 cells transiently transfected with hIGF2R; assay: Internalization in NIH 3T3 2.2 cells transiently transfected with hIGF2R; type: cell-based, human; conditions: 25 nM VHH conjugated to Alexa Fluor 647
Experimental: as §1, §2

IGF2R = target: T2, IGF2R (Rattus norvegicus, UniProt G3V824); assay: In situ detection of infused conjugate in liver cryo-sections (in vivo targeting of IGF2R)
T2 construct: from tissue; host or cells: cryo-sections of liver and other tissues, and liver in vivo, of Sprague-Dawley BDL and SHAM rats
T2 sequence (G3V824 36-2481): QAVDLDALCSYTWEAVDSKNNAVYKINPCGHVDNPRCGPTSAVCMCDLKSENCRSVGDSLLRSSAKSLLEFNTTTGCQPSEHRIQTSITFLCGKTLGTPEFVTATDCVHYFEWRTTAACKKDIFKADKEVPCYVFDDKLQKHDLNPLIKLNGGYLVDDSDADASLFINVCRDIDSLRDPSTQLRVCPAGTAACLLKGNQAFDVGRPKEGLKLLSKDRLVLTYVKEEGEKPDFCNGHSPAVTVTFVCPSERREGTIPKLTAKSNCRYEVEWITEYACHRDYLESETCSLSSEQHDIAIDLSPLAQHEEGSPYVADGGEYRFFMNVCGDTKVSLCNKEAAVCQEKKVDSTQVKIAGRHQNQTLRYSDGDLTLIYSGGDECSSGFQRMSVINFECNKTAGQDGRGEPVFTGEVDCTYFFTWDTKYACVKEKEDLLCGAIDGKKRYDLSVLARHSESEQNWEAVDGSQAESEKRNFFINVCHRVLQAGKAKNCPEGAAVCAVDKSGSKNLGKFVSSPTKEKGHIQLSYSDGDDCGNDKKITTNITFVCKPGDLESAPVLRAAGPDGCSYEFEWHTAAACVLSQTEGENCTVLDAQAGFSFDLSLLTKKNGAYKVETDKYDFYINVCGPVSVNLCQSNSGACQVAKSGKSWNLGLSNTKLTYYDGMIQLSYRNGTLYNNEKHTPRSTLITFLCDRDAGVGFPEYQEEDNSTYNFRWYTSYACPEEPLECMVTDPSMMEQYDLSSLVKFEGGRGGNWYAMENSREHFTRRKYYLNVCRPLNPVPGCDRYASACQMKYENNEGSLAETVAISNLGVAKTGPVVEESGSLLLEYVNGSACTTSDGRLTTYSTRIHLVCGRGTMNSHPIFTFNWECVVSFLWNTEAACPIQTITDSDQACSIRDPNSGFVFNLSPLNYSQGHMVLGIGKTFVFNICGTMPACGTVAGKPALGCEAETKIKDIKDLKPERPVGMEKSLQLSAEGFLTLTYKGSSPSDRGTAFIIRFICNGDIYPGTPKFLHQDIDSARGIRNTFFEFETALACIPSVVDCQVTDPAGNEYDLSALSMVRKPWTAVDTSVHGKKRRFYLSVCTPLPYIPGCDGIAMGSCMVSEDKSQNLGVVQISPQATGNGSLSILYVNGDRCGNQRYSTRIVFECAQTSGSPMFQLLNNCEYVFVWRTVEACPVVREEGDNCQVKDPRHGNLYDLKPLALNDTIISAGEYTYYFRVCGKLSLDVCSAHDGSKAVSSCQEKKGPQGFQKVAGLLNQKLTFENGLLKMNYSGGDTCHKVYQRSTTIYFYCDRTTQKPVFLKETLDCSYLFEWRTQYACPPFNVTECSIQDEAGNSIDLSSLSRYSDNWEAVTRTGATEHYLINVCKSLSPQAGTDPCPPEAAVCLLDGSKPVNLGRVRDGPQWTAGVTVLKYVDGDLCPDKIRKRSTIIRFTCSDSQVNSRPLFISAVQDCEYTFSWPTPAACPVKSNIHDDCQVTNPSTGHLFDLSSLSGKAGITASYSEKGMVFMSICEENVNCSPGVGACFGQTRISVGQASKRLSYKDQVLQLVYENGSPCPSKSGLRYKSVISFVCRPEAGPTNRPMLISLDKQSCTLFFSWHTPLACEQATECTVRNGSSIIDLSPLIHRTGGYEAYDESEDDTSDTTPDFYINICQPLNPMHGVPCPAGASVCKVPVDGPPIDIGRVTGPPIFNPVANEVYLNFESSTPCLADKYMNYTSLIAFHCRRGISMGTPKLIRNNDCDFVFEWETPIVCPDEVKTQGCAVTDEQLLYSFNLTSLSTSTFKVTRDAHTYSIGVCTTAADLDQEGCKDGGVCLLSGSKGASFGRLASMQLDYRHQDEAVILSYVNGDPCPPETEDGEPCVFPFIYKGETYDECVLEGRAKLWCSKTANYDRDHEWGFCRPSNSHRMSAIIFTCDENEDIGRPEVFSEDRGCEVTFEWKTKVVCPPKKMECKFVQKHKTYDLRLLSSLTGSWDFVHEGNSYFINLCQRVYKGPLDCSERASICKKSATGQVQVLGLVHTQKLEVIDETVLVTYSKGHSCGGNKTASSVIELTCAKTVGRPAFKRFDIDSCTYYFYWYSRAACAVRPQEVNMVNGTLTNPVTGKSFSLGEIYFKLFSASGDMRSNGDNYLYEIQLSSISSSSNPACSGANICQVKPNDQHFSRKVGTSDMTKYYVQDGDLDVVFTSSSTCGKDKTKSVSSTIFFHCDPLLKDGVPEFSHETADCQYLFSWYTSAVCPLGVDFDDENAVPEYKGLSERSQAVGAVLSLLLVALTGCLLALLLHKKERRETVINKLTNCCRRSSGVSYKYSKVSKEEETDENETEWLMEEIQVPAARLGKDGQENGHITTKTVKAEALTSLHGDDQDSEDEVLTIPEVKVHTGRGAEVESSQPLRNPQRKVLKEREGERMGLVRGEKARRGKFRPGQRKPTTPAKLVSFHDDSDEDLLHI
Experimental: (§3) After catheterization and hemodynamic stabilization, rats were dosed with 5 mg/kg test conjugate or mock conjugate i.v. through the lateral tail vein and pressures were monitored continuously (example 13.1.). One hour after dosing, animals were sacrificed after which tissues were isolated for ex vivo analysis (example 13.2.).
After isolation, livers obtained from test conjugate-infused BDL and SHAM rats were fixated with paraformaldehyde, soaked in 30% (w/v) sucrose in PBS, and sectioned using cryo-microtome. To detect the test conjugate in situ, tissue sections were stained with a rabbit polyclonal anti-VHH antiserum recognizing the 13F11-13E8 moiety of the conjugate, followed by an anti-rabbit antibody conjugated to the fluorophore Alexa-488 for visualization by confocal fluorescence microscopy (cf. example 12). […] Further accumulation of the test conjugate in the BDL liver beyond this one-hour time point was likely to have occurred.

[4] = system: BDL rats (portal hypertension); assay: Portal pressure and mean arterial pressure in BDL and SHAM rats after i.v. dosing; type: in vivo, rat; conditions: 5 mg/kg i.v.
Description: To evaluate in vivo functionality, 13F11-13E8-ABD was conjugated to a Y27632-maleimide modified functional moiety (1e) (the test conjugate) as outlined in example 9.2. To provide a comparator, a similar amount of 13F11-13E8-ABD was conjugated to N-ethylmaleimide in a parallel and similar preparation (the mock conjugate).
To establish animals displaying portal hypertension (Klein et al, Fibrosis: Methods and Protocols. Methods in Molecular Biology. 2017 (1627): 91-122.), Sprague-Dawley rats were subjected to bile duct ligation (BDL) through median laparotomy under ketamine/xylazine-induced anaesthesia i.p. (BDL rats). To provide healthy controls, a second cohort of rats was subjected to the same surgical procedure except for actual ligation of the bile duct (SHAM rats). Surgery was followed-up with pain control medication (carprofen s.c.). Approximately five weeks after surgery, ketamine/xylazine anesthetized rats were subjected to median laparotomy, after which one catheter was inserted through an ileocecal vein to the portal vein, and one catheter was inserted into the femoral artery. The catheters were connected to pressure recording equipment, for assessment of portal pressure and mean arterial pressure, respectively.
as §3

PDGFRB ECD = target: T3, PDGFRB ECD (Homo sapiens, UniProt P09619); assay: Competition ELISA with SP02P and SP26P on PDGFRB ECD; type: binding; conditions: versus SPO2P
T3 construct: assay with SP02P and SP26P on PDGFRB ECD
T3 sequence (P09619 33-532): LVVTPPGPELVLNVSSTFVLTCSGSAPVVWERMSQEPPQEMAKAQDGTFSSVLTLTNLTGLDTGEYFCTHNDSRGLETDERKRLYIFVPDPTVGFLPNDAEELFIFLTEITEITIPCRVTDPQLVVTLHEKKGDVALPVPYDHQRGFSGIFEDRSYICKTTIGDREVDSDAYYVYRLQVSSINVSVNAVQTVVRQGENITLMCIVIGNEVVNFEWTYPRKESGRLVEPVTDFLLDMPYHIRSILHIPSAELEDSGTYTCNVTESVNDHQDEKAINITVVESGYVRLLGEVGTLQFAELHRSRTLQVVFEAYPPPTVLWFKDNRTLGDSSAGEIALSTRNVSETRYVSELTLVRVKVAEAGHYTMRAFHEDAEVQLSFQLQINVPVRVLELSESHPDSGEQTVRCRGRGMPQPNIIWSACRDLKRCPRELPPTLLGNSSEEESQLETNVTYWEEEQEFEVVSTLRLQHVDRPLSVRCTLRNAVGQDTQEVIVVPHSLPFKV
Experimental: Competition ELISAs were carried out to determine whether the hPDGFRB specific binders (FIG. 5) and rPDGFRB specific binders (FIG. 6) recognize distinct epitopes on hPDGFRB or rPDGFRB, respectively. The hPDGFRB binding VHHs SPO2P, SP05P, SP12P and SP14P and the rPDGFRB binder SP26P were conjugated to IRDye800CW (VHH-IRDye800CW, conjugation method as described in example 9.2) and each conjugated VHH was mixed with unconjugated competitor in trifold serial dilutions and incubated on immobilized […]. Two VHHs share (part of) the same epitope when the fluorescence signal of the VHH-IRDye800CW decreases upon increasing concentration of unconjugated VHH. Furthermore, using a similar method as described in section 5.1, binding epitope competition between the hPDGFRB binding VHH SPO2P and rPDGFRB binding VHH

rat PDGFRB receptor = target: T4, rat PDGFRB receptor (Rattus norvegicus, UniProt Q05030); assay: Affinity (KD in nM) | SCC-rPDGFRβ cells
T4 construct: GFP; expressed in transfected cells; host or cells: SCC VII cells
Experimental: (§4) Table printed on a drawing sheet, FIG. 6
Head of the field: Affinity (KD in nM) | SCC-rPDGFRβ cells
(§5) The patent's description of the figure: FIG. 6. Amino acid sequence of rat PDGFRB VHHs (CDRs underlined). Affinities are measured on rat PDGFRB ectodomain (ECD) and squamous cell carcinoma cells transfected with rat PDGFRB receptor (SCC-rPDGFRB). Data of the competition assays is included to categorize the VHHs in different epitope groups.
(§6) First copying reader's note: Each sequence is printed over two lines and joined here by a blank; the underlining that marks the CDRs is not reproduced.
Where the first naming reader finds the target: description_of_the_figure: squamous cell carcinoma cells transfected with rat PDGFRB receptor (SCC-rPDGFRB)

[5] = target: rat PDGFRB ectodomain (ECD); assay: Affinity (KD in nM) | PDGFRβ ECD
Experimental: as §4
Head of the field: Affinity (KD in nM) | PDGFRβ ECD
as §5, §6
Where the first naming reader finds the target: description_of_the_figure: Affinities are measured on rat PDGFRB ectodomain (ECD) and squamous cell carcinoma cells transfected with rat PDGFRB receptor (SCC-rPDGFRB).

[6] = one hour after 5 mg/kg i.v., anti-VHH staining

B1: 13F11: VHH targeting IGF2R, SEQ ID NO: 273 (protein, listed as Lama glama)
VHH: EVQLVESGGRLVQPGDSLRLSCAASGRTFSDNAMGWFRQAPGKERRFVAGISWAGGSTYYSDSVKGRFTISRDNAKNTVYLQMNSLKPEDTAVYYCAAGLRAWVQRMPKDYNYWGQGTQVTVSS
For B1, the Kd (hIGF2R-ECD; construct conjugated to Alexa Fluor 647, direct read out) was 1 ± 0.61 nM, the Kd (hIGF2R-ECD; unconjugated VHH, one-site specific binding) was 0.23 ± 0.05 nM and the “internalization in mock transfected NIH 3T3 2.2 cells” value [1] was “did not internalize”. The “internalization in A549 cells” value [2] was “no internalization was observed” and the “internalization in hIGF2R transfected NIH 3T3 2.2 cells” value [3] was “did internalise”.

B2: test conjugate: 13F11-13E8-ABD conjugated to a Y27632-maleimide modified functional moiety (1e) (conjugate)
chain: EVQLVESGGRLVQPGDSLRLSCAASGRTFSDNAMGWFRQAPGKERRFVAGISWAGGSTYYSDSVKGRFTISRDNAKNTVYLQMNSLKPEDTAVYYCAAGLRAWVQRMPKDYNYWGQGTQVTVSSGGGGSGGGGSGGGGSEVQLVESGGGLVQAGGSLRLSCAASRSISPMGWYRQAPGKQRELVAIMPSSGPPIYADSVQGRFTISRDNAKNTVYLQMNSLKPEDTAVYYCNVGGGYWGQGTQVTVSS
modifications: non-natural residues; left off: large carriers; small tags and cut ends
With B2 the “distribution of conjugate versus tissue distribution of IGF2R” value (IGF2R; liver of BDL rats) was “overlapped with the (tissue) distribution of IGF2R; also recorded: displays co-localization with IGF2R”, the “detection of conjugate in liver of BDL rats” value (IGF2R; [6]) was “clearly detected” and the “detection of conjugate in liver of SHAM rats” value (IGF2R; [6]) was “not in the healthy liver of SHAM rats”. For the same molecule, the “mean arterial pressure (MAP)” value ([4]; BDL rats, one hour) was “remained constant”, the “portal pressure (PP)” value ([4]; BDL rats, one hour) was “gradual decrease of portal pressure” and the “portal or arterial pressure” value ([4]; SHAM rats) was “neither the test conjugate nor the mock conjugate affected portal or arterial pressure”.

B3: SP26P: rPDGFRB binding VHH, SEQ ID NO: 153 (protein, listed as Lama glama)
VHH: EVQLVESGGGLVQAGGSLRLSCAASGRSFSSSVMGWFRQTPGKEREFVAATRWTAASTHYADSVKGRFTISRDHAENAVFLQMNSLKPEDTAVYYCAAGNYLDTAQYRYNYWGQGTQVTVSS
In the case of B3, the “binding epitope competition between SPO2P and SP26P” value (PDGFRB ECD) is reported as “No competition”, the Kd (rat PDGFRB receptor) is reported as 0.3 nM and the Kd [5] is reported as 5.1 nM.
